Patent US20240377408A1 (ENCODIA, published 2024)
Ends that are not written are not given here. * marks the point of attachment. Benzoyl(4-SO2NH2) = NS(=O)(=O)c1ccc(C(=O)*)cc1; M65 = not defined here; M67 = not defined here; M75 = not defined here; M76 = not defined here; M88 = not defined here

B1: (SAB)AAAAE (peptide)
peptide: {Benzoyl(4-SO2NH2)}-AAAAE-NH2
SMILES: C[C@H](NC(=O)c1ccc(S(N)(=O)=O)cc1)C(=O)N[C@@H](C)C(=O)N[C@@H](C)C(=O)N[C@@H](C)C(=O)N[C@@H](CCC(=O)O)C(N)=O
B2: (SAB)AFAAE (peptide)
peptide: {Benzoyl(4-SO2NH2)}-AFAAE-NH2
SMILES: C[C@H](NC(=O)c1ccc(S(N)(=O)=O)cc1)C(=O)N[C@@H](Cc1ccccc1)C(=O)N[C@@H](C)C(=O)N[C@@H](C)C(=O)N[C@@H](CCC(=O)O)C(N)=O
B3: (SAB)EAAAE (peptide)
peptide: {Benzoyl(4-SO2NH2)}-EAAAE-NH2
SMILES: C[C@H](NC(=O)[C@H](C)NC(=O)[C@H](CCC(=O)O)NC(=O)c1ccc(S(N)(=O)=O)cc1)C(=O)N[C@@H](C)C(=O)N[C@@H](CCC(=O)O)C(N)=O
B4: (SAB)FAAAE (peptide)
peptide: {Benzoyl(4-SO2NH2)}-FAAAE-NH2
SMILES: C[C@H](NC(=O)[C@H](C)NC(=O)[C@H](Cc1ccccc1)NC(=O)c1ccc(S(N)(=O)=O)cc1)C(=O)N[C@@H](C)C(=O)N[C@@H](CCC(=O)O)C(N)=O
B5: (SAB)HAAAE (peptide)
peptide: {Benzoyl(4-SO2NH2)}-HAAAE-NH2
SMILES: C[C@H](NC(=O)[C@H](C)NC(=O)[C@H](Cc1c[nH]cn1)NC(=O)c1ccc(S(N)(=O)=O)cc1)C(=O)N[C@@H](C)C(=O)N[C@@H](CCC(=O)O)C(N)=O
B6: (SAB)LAAAE (peptide)
peptide: {Benzoyl(4-SO2NH2)}-LAAAE-NH2
SMILES: CC(C)C[C@H](NC(=O)c1ccc(S(N)(=O)=O)cc1)C(=O)N[C@@H](C)C(=O)N[C@@H](C)C(=O)N[C@@H](C)C(=O)N[C@@H](CCC(=O)O)C(N)=O
B7: (SAB)SAAAE (peptide)
peptide: {Benzoyl(4-SO2NH2)}-SAAAE-NH2
SMILES: C[C@H](NC(=O)[C@H](C)NC(=O)[C@H](CO)NC(=O)c1ccc(S(N)(=O)=O)cc1)C(=O)N[C@@H](C)C(=O)N[C@@H](CCC(=O)O)C(N)=O

How the values were obtained:
[1] = biological target: T1, human carbonic anhydrase 2 (wild-type hCAII) (Homo sapiens, UniProt P00918 4-259); experiment: cell-based or functional assay
[2] = biological target: T1, human carbonic anhydrase 2 (wild-type …); experiment: cell-based or functional assay; remark: listed apart in the source

IC50 (µM), hCAII functional assay (p-nitrophenyl acetate hydrolysis) [1]	NTM-AAEIR IC50 (µM), colorimetric IC50 assay (pNPA hydrolysis by wild-type hCAII) [2]	Binder
0.0484 µM		B1
0.183 µM		B2
0.0993 µM		B3
0.045 µM		B4
0.148 µM		B5
0.0284 µM		B6
0.153 µM		B7
	0.515 µM	M65-AAEIR (reading uncertain; also: printed as M65-AAEIR) [M65-AAEIR]
	0.073 µM	M67-AAEIR (reading uncertain; also: printed as M67-AAEIR) [M67-AAEIR]
	0.067 µM	M75-AAEIR (reading uncertain; also: printed as M75-AAEIR) [M75-AAEIR]
	0.077 µM	M76-AAEIR (reading uncertain; also: printed as M76-AAEIR) [M76-AAEIR]
	0.095 µM	M88-AAEIR (reading uncertain; also: printed as M88-AAEIR) [M88-AAEIR]
